In patent publication US20230147657A1 (INSERM INSTITUT NATIONAL DE LA SANT ET DE LA RECHERCHE M …, published 2023):
Read-outs that look alike come from different tables or passages of the source.

Legend:
human CD45RC [1] = molecular target: T1, human CD45RC (human, UniProt P08575 26-1306); assay: flow cytometry on T cells of human PBMC; biotin anti-human IgG + streptavidin PerCP-Cy5.5
T1 construct: Native protein on human blood leukocytes / PBMC / T cells of healthy volunteers; also called hCD45RC
T1 sequence: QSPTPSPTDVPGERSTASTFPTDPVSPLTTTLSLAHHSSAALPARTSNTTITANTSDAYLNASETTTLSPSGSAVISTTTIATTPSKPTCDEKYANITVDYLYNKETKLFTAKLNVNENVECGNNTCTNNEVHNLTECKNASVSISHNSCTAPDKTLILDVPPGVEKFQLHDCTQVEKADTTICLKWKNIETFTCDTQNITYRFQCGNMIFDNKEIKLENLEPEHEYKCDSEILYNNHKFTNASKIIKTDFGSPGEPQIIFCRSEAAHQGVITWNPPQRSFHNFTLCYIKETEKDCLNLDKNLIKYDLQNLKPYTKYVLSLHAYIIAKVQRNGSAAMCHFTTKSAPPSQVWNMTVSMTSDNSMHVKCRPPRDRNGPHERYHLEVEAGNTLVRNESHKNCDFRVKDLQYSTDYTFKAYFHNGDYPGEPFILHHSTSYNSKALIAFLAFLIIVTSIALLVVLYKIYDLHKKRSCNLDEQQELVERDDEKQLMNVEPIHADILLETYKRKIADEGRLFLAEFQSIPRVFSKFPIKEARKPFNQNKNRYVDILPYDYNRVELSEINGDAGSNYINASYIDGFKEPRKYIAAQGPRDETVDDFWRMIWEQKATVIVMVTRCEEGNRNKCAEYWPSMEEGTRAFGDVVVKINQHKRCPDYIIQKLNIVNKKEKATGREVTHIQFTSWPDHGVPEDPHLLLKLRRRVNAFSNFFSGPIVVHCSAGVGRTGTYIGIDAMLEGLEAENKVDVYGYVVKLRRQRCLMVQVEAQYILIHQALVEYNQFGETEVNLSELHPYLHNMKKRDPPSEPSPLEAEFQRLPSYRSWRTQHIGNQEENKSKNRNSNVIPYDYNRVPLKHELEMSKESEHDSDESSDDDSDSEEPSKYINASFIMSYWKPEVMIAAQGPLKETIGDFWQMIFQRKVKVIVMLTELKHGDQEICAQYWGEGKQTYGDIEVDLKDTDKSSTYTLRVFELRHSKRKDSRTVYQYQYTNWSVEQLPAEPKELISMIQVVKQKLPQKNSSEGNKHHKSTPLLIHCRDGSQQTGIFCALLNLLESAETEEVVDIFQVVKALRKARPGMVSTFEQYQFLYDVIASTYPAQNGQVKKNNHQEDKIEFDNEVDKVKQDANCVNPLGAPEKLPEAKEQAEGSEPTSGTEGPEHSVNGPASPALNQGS

human CD45RC [2] = molecular target: T1, human CD45RC; assay: as above; remark: listed apart in the source

Binder	% of T cells in the CD45RC gate at 1 µg/mL (human CD45RC [1])	% of T cells in the CD45RC gate at 2 µg/mL (human CD45RC [1])	% of T cells in the CD45RC gate at 1 µg/mL (human CD45RC [2])	% of T cells in the CD45RC gate at 2 µg/mL (human CD45RC [2])
Anti-45RC Variant E (antibody, human IgG1, kappa, V domains shown, also called humanized ABIS-45RC variant E) VH: EVQLVQSGAEVKKPGESLKISCKASGYTFTNYYIGWVRQMPGKGLEWIGDIFPGGDYANSNEKFKGQVTLSADKSISTAYLQLSSLKASDTAMYYCVRRNFDYWGQGTLVTVSS VL: EIVLTQSPDFQSVTPKEKVTITCSASSSVSYMHWFQQKPDQSPKLWIYNTSNLPSGVPSRFSGSGSGTDYTLTINSLEAEDAATYYCQQRSSYPLTFGGGTKVEIKR	53.7%	48.9%		
Anti-45RC Variant F (antibody, human IgG1, kappa, V domains shown, also called humanized ABIS-45RC variant F) VH: EVQLVQSGAEVKKPGESLKISCKASGYTFTNYYIGWVRQMPGKGLEWIGDIFPGGDYANSNEKFKGQVTLSADKSISTAYLQLSSLKASDTAMYYCVRRNFDYWGQGTLVTVSS VL: EIVLTQSPATLSLSPGERATLSCSASSSVSYMHWFQQKPGQAPRLWIYNTSNLPSGIPARFSGSGSGTDYTLTISSLEPEDFAVYYCQQRSSYPLTFGGGTKVEIKR	58.8%	57.2%		
Anti-45RC Variant G (antibody, human IgG1, kappa, V domains shown, also called humanized ABIS-45RC variant G) VH: QVQLVESGGGLVKPGGSLRLSCAASGYTFTNYYIGWIRQAPGKGLEWIGDIFPGGDYANSNEKVKGRFTLSADTAKNSAYLQMNSLRAEDTAVYYCVRRNFDYWGQGTLVTVSS VL: EIVLTQSPDFQSVTPKEKVTITCSASSSVSYMHWFQQKPDQSPKLWIYNTSNLPSGVPSRFSGSGSGTDYTLTINSLEAEDAATYYCQQRSSYPLTFGGGTKVEIKR	55.7%	54.2%		
Anti-45RC Variant H (antibody, human IgG1, kappa, V domains shown, also called humanized ABIS-45RC variant H) VH: QVQLVESGGGLVKPGGSLRLSCAASGYTFTNYYIGWIRQAPGKGLEWIGDIFPGGDYANSNEKVKGRFTLSADTAKNSAYLQMNSLRAEDTAVYYCVRRNFDYWGQGTLVTVSS VL: EIVLTQSPATLSLSPGERATLSCSASSSVSYMHWFQQKPGQAPRLWIYNTSNLPSGIPARFSGSGSGTDYTLTISSLEPEDFAVYYCQQRSSYPLTFGGGTKVEIKR			29.5%	13.2%
Anti-45RC Variant I (antibody, human IgG1, kappa, V domains shown, also called humanized ABIS-45RC variant I) VH: QVQLVESGGGLVKPGGSLRLSCAASGYTFTNYYIGWIRQAPGKGLEWIGDIFPGGDYANSNEKVKGRFTLSADTAKNSAYLQMNSLRAEDTAVYYCVRRNFDYWGQGTLVTVSS VL: DIQLTQSPSFLSASVGDRVTITCSASSSVSYMHWFQQKPGKAPKLWIYNTSNLPSGVPSRFSGSGSGTEYTLTISSLQPEDFATYYCQQRSSYPLTFGGGTKVEIKR			49.7%	48.9%
